Legend:
[1] = target: T1, Rv2034AE A32G;E35G (Mycobacterium tuberculosis) (UniProt O53478); test: EMSA
T1 sequence: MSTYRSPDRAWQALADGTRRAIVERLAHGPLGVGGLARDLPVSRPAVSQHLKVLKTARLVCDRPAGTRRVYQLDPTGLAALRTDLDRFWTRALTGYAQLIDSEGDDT

[2] = target: T2, Rv2034C61A C61A (Mycobacterium tuberculosis) (UniProt O53478); test: EMSA
T2 sequence: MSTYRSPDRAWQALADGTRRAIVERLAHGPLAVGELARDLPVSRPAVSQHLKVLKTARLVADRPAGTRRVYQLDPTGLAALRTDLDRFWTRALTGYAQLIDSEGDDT

[3] = target: T3, Rv2034 (ArsR family regulator) (Mycobacterium tuberculosis, UniProt O53478 1-107); test: EMSA; 0.1-1.2 uM protein; conditions: protein: recombinant, tags: N-terminal His6 (pET28a), chain copies: 2, label: 5' label (32P or FITC)
T3 sequence: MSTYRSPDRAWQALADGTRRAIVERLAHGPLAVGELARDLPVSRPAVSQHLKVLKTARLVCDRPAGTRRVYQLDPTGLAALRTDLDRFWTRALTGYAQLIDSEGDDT

[4] = target: T3, Rv2034 (ArsR family regulator); test: EMSA; up to 1.2 uM protein; conditions: protein: recombinant, tags: N-terminal His6 (pET28a), chain copies: 2, label: 5' label (32P or FITC)

## AATTTCTAGAGCCTGCGGCAAGCACGTCGGTTCCATAGCGATCCAGCACGCCGCAATACTAGGGAGCCTCTCTGCCGGTCATCGCCGCGACGCGCCGCATGGGTTCTCGGAAAATGCTTGTACCAGTCGACTTTCCGGCGGGCCAACGTCGCCAACCGATACTCGGCTCCAACGCCATGGGTGACGGGATGCCCGGATCACGTGTCACACCACCCGCGCACCCTTGCGGAAGAATATCCGTAAGTCTAAACTTACGGTTCGAATTCCCGG (double strand) [Rv2034p promoter]
[1]
  binding: no binding
[2]
  binding: no binding

B1: Rv2034BSmu4 (dsDNA)
DNA 1: AGAGTTGATACCGTAAGTTAGCACTTACGGACTTAAGGTT
DNA 2: AACCTTAAGTCCGTAAGTGCTAACTTACGGTATCAACTCT
[3]
  binding result: binds

B2: Rv2034BSmu3 (dsDNA)
DNA 1: GGAAGAATATCCGTAAGTCTGATAAAACTTACGGTTCGTGTCCA
DNA 2: TGGACACGAACCGTAAGTTTTATCAGACTTACGGATATTCTTCC
[3]; blunt
  binding result: binds

B3: Rv2034BSmu2 (dsDNA)
DNA 1: GGAAGAATATGGCATTCACTAAACTGCATGTTCGTGTCCA
DNA 2: TGGACACGAACATGCAGTTTAGTGAATGCCATATTCTTCC
[4]; blunt
  binding result: no binding

B4: Rv2034BSmu5 (dsDNA)
DNA 1: GGAAGAATATGGCATTCACTAACAGGCATATTCGTGTCCA
DNA 2: TGGACACGAATATGCCTGTTAGTGAATGCCATATTCTTCC
[4]
  binding result: no binding

— article PMC3338718, “Characterization of a Novel ArsR-Like Regulator Encoded by Rv2034 in Mycobacterium tuberculosis”
